Source: publication PMC8074105, “Bacillus subtilis PcrA Helicase Removes Trafficking Barriers” (Cells, 2021)

Legend:
PcrA [1] = molecular target: T1, PcrA (Bacillus subtilis, UniProt O34580 1-739); assay: EMSA; 2.5 mM ATPgS, 3 mM Mg2+; four complexes; 20 mM Tris-HCl pH 7.5, 50 mM NaCl, 3 mM MgCl2, 4 mM DTT, 0.05 mg/mL BSA, 5% glycerol, 2.5 mM ATPgS, 0.1 nM 32P-labelled nucleic acid, 15 min, 37 C; conditions: protein: recombinant; tags: His6 removed (TAGZyme); label: 32P
T1 sequence: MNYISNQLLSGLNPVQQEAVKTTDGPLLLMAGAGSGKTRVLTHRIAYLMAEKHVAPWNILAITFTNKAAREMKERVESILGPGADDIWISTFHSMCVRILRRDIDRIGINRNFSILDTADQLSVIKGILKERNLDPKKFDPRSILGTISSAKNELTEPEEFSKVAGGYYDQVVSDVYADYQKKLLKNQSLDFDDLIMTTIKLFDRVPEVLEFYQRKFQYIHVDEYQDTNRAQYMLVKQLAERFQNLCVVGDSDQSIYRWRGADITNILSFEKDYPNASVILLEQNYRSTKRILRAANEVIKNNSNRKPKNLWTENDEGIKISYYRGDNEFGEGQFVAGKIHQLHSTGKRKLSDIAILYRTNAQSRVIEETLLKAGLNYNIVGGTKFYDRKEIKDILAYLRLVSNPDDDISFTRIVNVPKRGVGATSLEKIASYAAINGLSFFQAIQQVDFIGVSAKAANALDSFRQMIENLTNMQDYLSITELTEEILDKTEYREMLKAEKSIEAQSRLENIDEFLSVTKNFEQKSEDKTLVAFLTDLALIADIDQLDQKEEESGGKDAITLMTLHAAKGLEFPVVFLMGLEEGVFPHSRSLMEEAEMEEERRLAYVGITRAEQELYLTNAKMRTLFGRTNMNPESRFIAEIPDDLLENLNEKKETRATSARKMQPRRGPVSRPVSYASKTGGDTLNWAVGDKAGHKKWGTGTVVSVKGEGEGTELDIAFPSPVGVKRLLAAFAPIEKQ

[2] = substrate: Nc1ncnc2c1ncn2[C@@H]1O[C@H](COP(=O)(O)OP(=O)(O)OP(=O)(O)O)[C@@H](O)[C@H]1O; assay: NADH-coupled (pyruvate kinase / lactate dehydrogenase) spectrophotometric ATPase assay, Michaelis-Menten fit; type: biochemical, Bacillus subtilis; conditions: 15 nM PcrA, ATP 0.06 to 10 mM, ssDNA-dependent assay (circular pGEM3 Zf(+) ssDNA, 10 µM in nt, inferred from context), 10 mM Mg acetate, 80 mM NaCl, pH 7.5, 37 °C
PcrA [3] = molecular target: T1, PcrA; assay: EMSA; 2.5 mM ATPgS, 3 mM Mg2+; apparent; unstable complexes; 20 mM Tris-HCl pH 7.5, 50 mM NaCl, 3 mM MgCl2, 4 mM DTT, 0.05 mg/mL BSA, 5% glycerol, 2.5 mM ATPgS, 0.1 nM 32P-labelled nucleic acid, 15 min, 37 C; conditions: protein: recombinant; tags: His6 removed (TAGZyme); label: 32P

GCTCTGATGCCGCATAGTTAAGCCAGCCCCGACACCCG (ssDNA) [38-nt ssDNA (SM44D)]: binds (PcrA [1]).

B1: PcrA (Bacillus subtilis subsp. subtilis str. 168) (protein)
chain: T1 sequence
notes: full-length, His6-tagged from plasmid pCB1229 (pQE1) in E. coli M15 (pREP4), His-tag removed with TAGZyme; amounts as monomers
For B1, the Km [2] was 1500 ± 300 µM.

GCUCUGAUGCCGCAUAGUUAAGCCAGCCCCGACACCCG (ssRNA) [38-nt RNA (SM44R)] showed a Kd (PcrA [3]) of roughly 35 nM.
